Experimental data published in article PMC3281842, “Crystal Structure of TDRD3 and Methyl-Arginine Binding Characterization of TDRD3, SMN and SPF30” (PLoS ONE, 2012).

What was measured:
[1] = target: PIWIL1-R4me2s (Homo sapiens) (UniProt Q96J94); conditions: cited from earlier work
[2] = target: PIWIL1-R4me2a (Homo sapiens) (UniProt Q96J94); conditions: cited from earlier work
[3] = target: PIWIL1-R4me1 (Homo sapiens) (UniProt Q96J94); conditions: cited from earlier work
H3R17me2a = assay: ITC; 20 mM Tris pH 8.0, 200 mM NaCl; 25°C; one-site binding model
H3R2me2s = assay: fluorescence polarisation; fluorescein-labeled peptides; 20 mM Tris pH 7.5, 50 mM NaCl, 1 mM DTT, 0.01% Triton X-100; 25°C; one-site binding model; Kd the average of three independent measurements
H3R2me2a = assay: as above

Sequence of SND1 650-910 (Q7KZF4 650-910): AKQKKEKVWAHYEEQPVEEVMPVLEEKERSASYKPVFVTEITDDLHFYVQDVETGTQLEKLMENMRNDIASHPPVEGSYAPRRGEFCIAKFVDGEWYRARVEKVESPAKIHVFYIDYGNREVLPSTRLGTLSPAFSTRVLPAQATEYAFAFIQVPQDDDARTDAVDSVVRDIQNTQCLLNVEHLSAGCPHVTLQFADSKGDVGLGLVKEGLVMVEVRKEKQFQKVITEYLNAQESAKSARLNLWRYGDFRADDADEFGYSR

Row | Substance | Kd [1] [µM] | Kd [2] [µM] | Kd [3] [µM] | Kd (H3R17me2a) [µM] | Kd (H3R2me2s) [µM] | Kd (H3R2me2a) [µM]
1 | SND1 650-910 (from UniProt Q7KZF4) | 10 | 42 | 19 |  |  | 
2 | TDRD3 (aa 520–633) (from UniProt Q9H7E2 520-633) (domain or fragment) |  |  |  | > 1000 | > 500 | > 500
